Data: PMC9171633 (Proceedings of the National Academy of Sciences of the …, 2022)

Molecular target: KRas WT G domain (UniProt P01116-1 1-166)
Assay: pull-down

- binding result: binds
B1: GST-RBD (domain or fragment)
chain: GLTSKESLFVRINAAHGFSLIQVDNTKVTMKEILLKAVKRRKGSQKVSGPQYRLEKQSEPNVAVDLDSTLESQSAWEFCLVRENSSRAD
